# Experimental data reported in patent US20210155676A1 (Gilead, published 2021).
# Changes are numbered by the printed parent chain.
# B1: PGT121.42 hIgG1/hLambda (antibody)
# heavy: QMQLQESGPGLVKPSETLSLTCSVSGASISDSYWSWIRRSPGKGLEWIGYVHKSGDTNYNPSLKSRVHLSLDTSKNQVSLSLSSVTAADSGKYYCARTLHGRRIYGIVAFNEWFTYFYMDVWGKGTQVTVSSASTKGPSVFPLAPSSKSTSGGTAALGCLVKDYFPEPVTVSWNSGALTSGVHTFPAVLQSSGLYSLSSVVTVPSSSLGTQTYICNVNHKPSNTKVDKKVEPKSCDKTHTCPPCPAPELLAGPDVFLFPPKPKDTLMISRTPEVTCVVVDVSHEDPEVKFNWYVDGVEVHNAKTKPREEQYNSTYRVVSVLTVLHQDWLNGKEYKCKVSNKALPLPEEKTISKAKGQPREPQVYTLPPSREEMTKNQVSLTCLVKGFYPSDIAVEWESNGQPENNYKTTPPVLDSDGSFFLYSKLTVDKSRWQQGNVFSCSVLHEALHSHYTQKSLSLSPGK
# light: not shown
# notes: also called PTG121.42
# B2: PGT121.56 hIgG1/hLambda (antibody)
# heavy: B1 heavy with N60S, H68N, S83V, S84A, V85A, K124N
# light: not shown
# B3: PGT121.61 hIgG1/hLambda (antibody)
# heavy: B1 heavy with S83T, S84G, K124T
# light: SDISVAPGETARISCGEKSLGSRAVQWYQHRAGQAPSLIIYNNQDRPSGIPERFSGSPDSRPGTTATLTITSVEAGDEADYYCHIWDSRVPTKWVFGGGTKLTVLGQPKAAPSVTLFPPSSEELQANKATLVCLISDFYPGAVTVAWKADSSPVKAGVETTTPSKQSNNKYAASSYLSLTPEQWKSHRSYSCQVTHEGSTVEKTVAPTECS
# Assays:
# human FcγRIIIA [1] = molecular target: T1, human FcγRIIIA (human, UniProt P08637 17-254); assay: cell-based or functional assay
# T1 sequence (P08637 17-254): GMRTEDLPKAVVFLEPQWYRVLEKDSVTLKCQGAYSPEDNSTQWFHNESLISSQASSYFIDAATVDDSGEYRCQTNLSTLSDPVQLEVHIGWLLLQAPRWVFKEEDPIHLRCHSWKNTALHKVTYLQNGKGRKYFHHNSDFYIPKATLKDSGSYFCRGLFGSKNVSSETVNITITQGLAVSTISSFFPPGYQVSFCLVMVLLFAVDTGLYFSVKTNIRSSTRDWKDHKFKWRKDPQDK
# human FcγRIIIA [2] = molecular target: T1, human FcγRIIIA; assay: cell-based or functional assay; remark: listed apart in the source
# gp140 SHIV SF162P3 = molecular target: T2, gp140 SHIV SF162P3 (SHIV SF162P3); assay: ELISA, gp140 coated
# T2 construct: domain: gp140; also called SHIV gp140
# Description: (§1) The in vitro binding characteristics of antibodies for both the antigen (HIV gp120) and Fc binding receptors (FcγRs, FcRn) were determined using an Enzyme-Linked Immunosorbant Assay (ELISA).
# gp140 BaL = molecular target: T3, gp140 BaL (HIV-1 strain BaL); assay: ELISA, gp140 coated
# T3 construct: domain: gp140
# Description: as §1
# HIV-1 BaL Env (on virus) = HIV-1 BaL Env (on virus) (HIV-1 strain BaL); assay: cell-based or functional assay
# [3] = molecular target: HIV-1 92US727 Env (on virus) (HIV-1 isolate 92US727); assay: cell-based or functional assay
# [4] = molecular target: HIV-1 92US712 Env (on virus) (HIV-1 isolate 92US712); assay: cell-based or functional assay
# [5] = molecular target: HIV-1 93HT593 Env (on virus) (HIV-1 isolate 93HT593); assay: cell-based or functional assay
# [6] = molecular target: HIV-1 92US657 Env (on virus) (HIV-1 isolate 92US657); assay: cell-based or functional assay
# human FcγRIIIA [7] = molecular target: T1, human FcγRIIIA; assay: cell-based or functional assay; remark: listed apart in the source
binder,measurement,setting,value
B1,"NK ADCC EC50, HT593-infected CD4+ T cells, donor 1",human FcγRIIIA [1],24 pM
same,"NK ADCC EC50, HT593-infected CD4+ T cells, donor A4588",human FcγRIIIA [1],176 pM
same,"NK ADCC EC50, HT593-infected CD4+ T cells, donor A4589",human FcγRIIIA [1],180 pM
same,"NK ADCC EC50, HT593-infected CD4+ T cells, donor A4813",human FcγRIIIA [1],4900 pM
same,"NK ADCC EC50, HT593-infected CD4+ T cells, donor A4838",human FcγRIIIA [1],620 pM
same,"NK ADCC EC50, HT593-infected CD4+ T cells, donor A4839",human FcγRIIIA [1],5200 pM
same,"NK ADCC EC50, HT593-infected CD4+ T cells, donor X",human FcγRIIIA [1],14 pM
same,"NK ADCC EC50, HT593-infected CD4+ T cells, geomean of donors",human FcγRIIIA [1],300 pM
same,"NK ADCC EC50, US657-infected CD4+ T cells, donor A4588",human FcγRIIIA [2],4300 pM
same,"NK ADCC EC50, US657-infected CD4+ T cells, donor A4589",human FcγRIIIA [2],1500 pM
same,"NK ADCC EC50, US657-infected CD4+ T cells, donor A4595",human FcγRIIIA [2],570 pM
same,"NK ADCC EC50, US657-infected CD4+ T cells, donor A4813",human FcγRIIIA [2],1400 pM
same,"NK ADCC EC50, US657-infected CD4+ T cells, donor A4838",human FcγRIIIA [2],940 pM
same,"NK ADCC EC50, US657-infected CD4+ T cells, donor A4839",human FcγRIIIA [2],540 pM
same,"NK ADCC EC50, US657-infected CD4+ T cells, geomean of donors",human FcγRIIIA [2],1200 pM
same,EC50,gp140 SHIV SF162P3,450 pM
same,EC50,gp140 BaL,520 pM
same,"neutralization IC50, HIV-1 BaL, CEM.NKr.CCR5.Luc assay",HIV-1 BaL Env (on virus),0.015 µg/mL
same,"neutralization IC50, HIV-1 US727, CEM.NKr.CCR5.Luc assay",[3],0.015 µg/mL
same,"neutralization IC50, HIV-1 US712, CEM.NKr.CCR5.Luc assay",[4],0.02 µg/mL
same,"neutralization IC50, HIV-1 HT593, CEM.NKr.CCR5.Luc assay",[5],0.155 µg/mL
same,"neutralization IC50, HIV-1 US657, CEM.NKr.CCR5.Luc assay",[6],0.096 µg/mL
same,"NK ADCC EC50, BaL-infected CD4+ T cells, donor A4590",human FcγRIIIA [7],1200 pM
same,"NK ADCC EC50, BaL-infected CD4+ T cells, donor A4591",human FcγRIIIA [7],20 pM
same,"NK ADCC EC50, BaL-infected CD4+ T cells, donor A4813",human FcγRIIIA [7],4400 pM
same,"NK ADCC EC50, BaL-infected CD4+ T cells, donor A4838",human FcγRIIIA [7],500 pM
same,"NK ADCC EC50, BaL-infected CD4+ T cells, donor A4839",human FcγRIIIA [7],3900 pM
same,"NK ADCC EC50, BaL-infected CD4+ T cells, geomean of donors",human FcγRIIIA [7],700 pM
B2,EC50,gp140 SHIV SF162P3,480 pM
same,EC50,gp140 BaL,590 pM
same,"neutralization IC50, HIV-1 BaL, CEM.NKr.CCR5.Luc assay",HIV-1 BaL Env (on virus),0.02 µg/mL
same,"neutralization IC50, HIV-1 US727, CEM.NKr.CCR5.Luc assay",[3],0.011 µg/mL
same,"neutralization IC50, HIV-1 US712, CEM.NKr.CCR5.Luc assay",[4],0.019 µg/mL
same,"neutralization IC50, HIV-1 HT593, CEM.NKr.CCR5.Luc assay",[5],0.164 µg/mL
same,"neutralization IC50, HIV-1 US657, CEM.NKr.CCR5.Luc assay",[6],0.142 µg/mL
B3,"neutralization IC50, HIV-1 BaL, CEM.NKr.CCR5.Luc assay",HIV-1 BaL Env (on virus),0.008 µg/mL
same,"neutralization IC50, HIV-1 US727, CEM.NKr.CCR5.Luc assay",[3],0.005 µg/mL
same,"neutralization IC50, HIV-1 US712, CEM.NKr.CCR5.Luc assay",[4],0.008 µg/mL
same,"neutralization IC50, HIV-1 HT593, CEM.NKr.CCR5.Luc assay",[5],0.343 µg/mL
same,"neutralization IC50, HIV-1 US657, CEM.NKr.CCR5.Luc assay",[6],0.072 µg/mL
